Results published in patent publication US20250034549.

Key:
[1] = molecular target: v2.2 BE-VLP gag-ABE8e fusion
[2] = molecular target: v2.3 BE-VLP gag-ABE8e fusion
[3] = molecular target: v2.4 BE-VLP gag-ABE8e fusion
[4] = molecular target: v2.1 BE-VLP gag-ABE8e fusion

B1: MMLV protease (protein)
chain: TLDDQGGQGQEPPPEPRITLKVGGQPVTFLVDTGAQHSVLTQNPGPLSDKSAWVQGATGGKRYRWTTDRKVHLATGKVTHSFLHVPDCPYPLLGRDLLTKLKAQIHFEGSGAQVMGPMGQPLQVL
**Q.** B1 was tested. Which “fraction of cleaved ABE8e versus full-length gag-ABE8e present in purified BE-VLPs (western blot)” value [1] did it give?
**A.** Its value is “the v2.4 linker is cleaved more efficiently than the v2.1 and v2.2 linkers, but less efficiently than the v2.3 linker”.

**Q.** What about the “fraction of cleaved ABE8e versus full-length gag-ABE8e present in purified BE-VLPs (western blot)” value [2] of the same protein?
**A.** Its value is “the v2.4 linker is cleaved more efficiently than the v2.1 and v2.2 linkers, but less efficiently than the v2.3 linker”.

**Q.** And the “fraction of cleaved ABE8e versus full-length gag-ABE8e present in purified BE-VLPs (western blot)” value [3]?
**A.** Its value is “the v2.4 linker is cleaved more efficiently than the v2.1 and v2.2 linkers, but less efficiently than the v2.3 linker”.

**Q.** And the “fraction of cleaved ABE8e versus full-length gag-ABE8e present in purified BE-VLPs (western blot)” value [4]?
**A.** The value was “the v2.4 linker is cleaved more efficiently than the v2.1 and v2.2 linkers, but less efficiently than the v2.3 linker”.
